The source of these data is a protein production outcome set (Wang et al. 2014).

The nature of the series: label from the status in PepcDB records.
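Also: failed if final PepcDB status was selected cloned or expressed and not failed if soluble or beyond.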

“MFNRRIALICLIVATLSACGGKTKEELYAEAVKELDKGNANGAIVLLKNAVEKDQNYFDARYKLAKAYMTVGKFEQAEKEFQKALRQNPSNPEIRLDLAKLYNSINKPDESIAEAKAYLSARAGSADALEVIGTSYGQKKMFDEAEKYLKESLQAEPARASAMLQLAKVYLATKREQEGMGLLNEIVRKDPKNTKAYYLAAFYEGYRGNSEKALEYYQKIMQADPDDANAAFRIGMMHISKGEVDKAERLADDLIRKASKRPEGHQLKGIALYTRKNYDQAITELQGVVKNYQNPGAYYYLGLSYYQRNDLESALSQFRKVIDLNPKHLQARLMSATVLLQQKRTDDAITEAKRVIELDDKNAFAHNVLGSAYIAKGMTDEAVRELNRAIELEPKLVGAHMKKGIVNLARGKRAEGEEELETAVKVAPDVLNSRYLLASYYMRLNKQARAIEVLRAGLRGGKQDAPLYNTMAAAAFADKREKDGILYLQKAREVDQAYLPASFNLASYYISKKDNGRAAGLFNEILKRDPANLKALIGLGAISESEGKAQEAVAYYTKAKATKDPVGYLSLASYYIRKKEAPKALALANEGLKGAPNNAALLELKGGLLAADKKYAEALKVYDELEKVAPTRAIPLKIGALVVTKNIPKAVEQAQKVVAANPKSAAGHLVIASIYESQKDYDRAISAVRSGIAVEPGNLRASMALGGIYEKKRDFARAIAAYDDILRKNPKNIPALFAKGAAFDQSGKKKEAAGIYRAVLKIAPDFVPALNNLAYLAAEGYGNKSEALSLASRANKLQPNNAGVMDTYGYALLINGKRTASVRVLEKAVSLLPNNPAVHYHLAMAYRDMGDRAKASVSVQKSLQYGEFPESAAARKLLAELKR”: the protein production entry is on record as “failed”.

For “MFPYKIVDDVVILMPNKELNIENAHLFKKWVFDEFLNKGYNKIFLVLSDVESIDSFSLGVIVNILKSISSSGGFFALVSPNEKVERVLSLTNLDRIVKIYDTISEAMEEVRRK”, the protein production entry was “not failed”.

With “MFQIGEHNMILIYKLTLTKLTEDELKKDFATIPSWATHLDLSNNRLGETSNEELIRVFAKIPGWISHIKLRFNNLGQKNGKDLAKAFAKIPISVTTLDLGSNQLGKKSGEELANAFAGIPTSVTRLILSQNELYKRTGGELATAFAKIPSSVTHLVLVNNGLGEKNGKELATAFANIPSSVTTLDLALNDLSKIKSTELAVIFTKIPTSVTQLDLSHNNLNKKSGKNLAKIFANIPTSVTNLNLSCNELGKKSGKGLAAAFAKIPTSVTDLNIEDNDLDNRTGKELAMAFAHIPAFVNTLRLGDNNLGNKSGEELAEIFAKIPLSVTSLDLRYNELGKRNGKELAIAFAKIPSSVTNLNLKFNHLGKITGEELAMAFANIPTNVDSLVLANNELGAKSGEELAKIFSKIPASITSLNMGNDWFAVIEKLSQQKMVLSTITHVVIDYSSAQEHSAKLKLLATVFPNLNKVTFMDIHGNNALAGQNPIEEAKWLKLCGIKNSVPSLLSQALFFVAKNKEHRSIQDYPSLLPKELTDSISSLLKC”, the protein production result is reported as “failed”.

Take “MFQLRKKMTRKQLALLSAGVLTCVVGGSYLIMNHQQQEIVSSVNKVKALTIKEAMEQGKDISLTLAGEVTANNSSKVKIDSSKGEVKEVFVKKGDVVKVGQPLFSYETSQRLTAQSSEFDVQTKANQLQVAKTNAALKWETYNRKVNEINTLKSRYNTAPDESLLEQIRSAEDSVSQALSDAKTADSDVKTAQIELDKANATATTEKGKLEYDTVKSDTAGTIVSLNTDLPNQSKSKKENETFMEIIDKSKMLVKGNISEFDRDKLKIGQKVEVIDRKDNSKKWTGKVTQVGNLKAEEKGQGQGQGGNDQQDNPNQAKFPYVIELDQSDKQPLIGSHTYVNVLNNVPEAGKIVLKETFTMAENGKTYVWKVDKNKVKKQEIKTKPFSKGYVEVTSGLTMQDKIAQPLPGMKDGMEVGSIVKP”: the protein production entry is recorded as “failed”.

Turning to “MFRDEDETTPPRAREVERLKKRLYRLKYLAHKYKRAEVVQNALLELSHIATQVSSLEEFYLGVHHHLKQLISADNFFIATLDVNSGAISVPFFADEKDAHPSQLYPEQSLSTLLQQGLTGYVFRTGQTLLCDESKVDELVNAEEIVNLGSPCHLWLGVPIKHEDIVTAVLVVQTYDTNVSYGDIEVELMTFICHHITGVMERLKHQEQLEQAIQQ”, the protein production entry was “failed”.

On to “MFRGVAPPPERSSTPLPPTMTTTPEPGAALLLLIVSQLPGIGPSRARALLNRFGATPALLEADYDALRQIPGIGETTARETAERLANPAWRDKAREKGENQLARAERLEASVITILDPAYPPLLKEIYDPPLLLFARGNPEALCVPSLAVVGTRKATAYGKQATEFICREMVNNGYAILSGLAYGIDMMAHRAAVESNGVTIAVLGCGIDRIYTDPAGRLWPRILERGAIVSEEWIGIKPEPGNFPRRNRLIAGLAQGTLIVESDIKGGSMITASYALEQNREVFAIPGSIFSGTSRGTNYLIQQNHAKPVFSAEDILAELNPAQHPALKTHPEASEPFDLNIEESCIVEALQSGAMHIDLIAEKTGLKIDALLVHLFELELKRIIEQEPGQIFRKRTP”, for which the protein production entry is “failed”.

For the sequence “MFRSKRYQMVAYAITGSALWGLSGTVSSILFSRYGMPFSTLVTIRMVFSGLILLAAGRGFVGKKDLPMFLVFAIPGLFGVQILYLATISFSNAPVATLLQFLFFPMVAVYDYITIRSLTVSSLILALIFSVAGIYELTTGFPLGGTALRISLTALILGLATAATAALYTVTSARIVKEYGGLRTVASGMMVGGLVSLPLGSFSGVPYFHGLGQADVIPVLALTIFVIVFGTSMAFYLYINSMRYISPVEAAVSGTFEPVAAAMSSYLLLGIKLSAMQYLGGALIVISILVIVISKNRRG”, the protein production result is given as “failed”.

As to “MFRSLNSYLIDFTGLVVISVLICLVSAGGSLASGLPFQIPASVLQLNTIFISILIEALPFVLIGVLIAGFIQIFVTEEHIRSLFPKNRFSGVIVSCLLGACFPACECGIVPIVRRLVSKGVPIYAGVGFLLTGPLINPIVVLSTYMAFGNDLRMAVLRVAVGFAAAVIIAFAISMMFRSSQLKTESRQTAAHCAHSGRRSPFSEKLFDMLKHAVDEFFDMGRFLIIGALVAALVQTYLPLKSLFVFGGGMLDSALVMMGLAYFLSLCSEADAFIGASFTNLFPSSSILAFLVYGPMLDLKNTVMMLHAFKPKFVICLSVLITVVVFVCIKVVSLL”, the protein production result is reported as “failed”.

Take “MFRSSRRQAAFDFDLLMPETPARRTARAANPDRDVVDAEFVTIKENRVRQPGNDNRGAARRQMVKPSVTIGALGLAFIGWLDRRLSRLSADAYSALVAGLAIFVFVCSGGLSVVVPETSAVAASVNPLAISHVTITPQEAGGMDILLINGIVENNGGNLEEVPALRADLFAAKGQLVASMVIEPPVKEMQPGFSHGFSAKLRHPGGKTPEIKLSFVEAGASAR”: the protein production entry is listed as “failed”.

Regarding “MFRVTGTLSAASSPAVAAASFSAALRLSITPTLAIASPPHLRWFSKFSRQFLGGRISSLRPRIPSPCPIRLSGFPALKMRASFSSGSSGSSASREILVQHLLVKNNDVELFAELQKKFLDGEEMSDLAAEYSICPSKKDGGILGWVKLGQMVPEFEEAAFKAELNQVVRCRTQFGLHLLQVLSEREPVKDIQVEELHSKMQDPVFMDEAQLIDVREPNEIEIASLPGFKVFPLRQFGTWAPDITSKLNPEKDTFVLCKVGGRSMQVANWLQSQGFKSVYNITGGIQAYSLKVDPSIPTY”, the protein production entry was “failed”.

As for “MFRWERSIPLRGSAAALCNNLSVLQLPARNLTYFGVVHGPSAQLLSAAPEGVPLAQRQLHAKEGAGVSPPLITQVHWCVLPFRVLLVLTSHRGIQMYESNGYTMVYWHALDSGDASPVQAVFARGIAASGHFICVGTWSGRVLVFDIPAKGPNIVLSEELAGHQMPITDIATEPAQGQDCVADMVTADDSGLLCVWRSGPEFTLLTRIPGFGVPCPSVQLWQGIIAAGYGNGQVHLYEATTGNLHVQINAHARAICALDLASEVGKLLSAGEDTFVHIWKLSRNPESGYIEVEHCHGECVADTQLCGARFCDSSGNSFAVTGYDLAEIRRFSSV”, the protein production result is reported as “failed”.

“MFSFNMFDHPIPRVFQNRFSTQYRCFSVSMLAGPNDRSDVEKGGKIIMPPSALDQLSRLNITYPMLFKLTNKNSDRMTHCGVLEFVADEGICYLPHWMMQNLLLEEGGLVQVESVNLQVATYSKFQPQSPDFLDITNPKAVLENALRNFACLTTGDVIAINYNEKIYELRVMETKPDKAVSIIECDMNVDFDAPLGYKEPERQVQHEESTEGEADHSGYAGELGFRAFSGSGNRLDGKKKGVEPSPSPIKPGDIKRGIPNYEFKLGKITFIRNSRPLVKKVEEDEAGGRFVAFSGEGQSLRKKGRKP”: the protein production entry is “not failed”.

As to “MFSLNTLLNPPDNLSVGEIILISLILGMLHGVTPDEHTWPITFSYAIGKYSTKGGMKAGFLFSLGFTIQRAFLTTIGFLGLAAIYNQYNLDGPVYAVVGIVMAIAGSYILKGKYIHLPIDALFKSKQHTEEAGKVKDIPIKMTIVHGLVAGFGFGAYATIITFVLAPQLPSVVYAPLPGLFFGLGTMVMQIIFGMIFGNILRLKKMTEEQLSFIARKTAGRVLYYGGLVFLIVGLLIIVLPAIDNFAISTGNPIPNLDAINIGFLLVISVVGVIGISSILYGFREAKRLAKHI”, the protein production result was “failed”.

In the case of “MFSPDSPISEFVSISTHVAPSVVKTTAGDYLLIWHLGGLPFVGRDEFELEQRHNTFNRLLQTLRAPDFANVAFWVHDVRRRRRIGAGGRFKQAFNQTLSDEYYTALSSQKIMQNELYFSMIYRPVVTGRRLVEKSANPDKIRAEEEQAVAKVVELATNVEAVLKDYAPYRLGMYEAKNGLVFSETLEFLGYLLNRIDEPVPVLPAPVPAYLPVSKHMFANKTGDFVIRTPDGINHFGAILNIKEYADGTYPGILNGLKYLDSEYVMTHSFSPVGRHDALKVLERTKGMMVSSGDKSSTQIRDLDVAMDDVASGNFVLGEYHFTLAVYADSQEKLARQIATTRAELSNAGFVSAKEDLAIASSFYSQLPGNWRFRTRIANLSSLNFLGLSPLHNFAQGKQHNNPWGDCVTTLQTTNGQPYYFNFHATHPSENSLGEKAIGNTMVIGKSGTGKTALINFLLSQVQKFDPIPTIFFFDKDRGAEIFVRACGGNYLALENGSPTGFNPFQCERNEANTQFLAELIKVLGGKAEYSAREEEDIYRAVEGMLDTPMHLRSMSNFRKSLPNMGDDGLYARLRRWTAGNSLGWVFDNPVDTIDLTRASIIGFDYTDVIDNAEVRVPVINYLLHRLEALIDGRPLIYVMDEFWKILDGKGGLKEFAKNKQKTIRKQNGLGIFATQSPEDALASDIAAALIEQTATMILLPNPNASRDDYMEGLKLTDAEYQVVVSLDERSRCFLVKQGHASAVCQLNLRGMDDALSVISSSTDNIEIMHQILAGKAGKLGVTVDQLTPEQWLEHHHHHH”, the protein production entry is “failed”.

For “MFTALLFTLGIAAATSFNASAIDNHNNKNKLPDIGISGYSVLSTDKELQIGKAMMRQLRASQPLIQDPVLIEYINHLGNSLVKNAQGVNYAFEFFLINNNELNAFAFFGGHVGIHSGLITTADTESELASVIAHEISHVTQRHLARRLESQSQTQGLTMAAMLSSVLITLVNPTVGIAALSASMAVTQQASINYTRGNEKEADRVGIALLASSNYDPQGAASFFSKMSTKYRYASKPPAMLLTHPLPESRIADARQRALNYPARPLPPSLGFELTKARLKSRYQGEAKSNISFFKLQLEKKRYAIKAAAQYGLALSYFENKQTSEALQLLEMLEKNDKDNLFYVDALTDVYIANNQANKAIKMLERLNLFMPNNQVVSLNYANALLSVKEYDLAAQILQDFLLVNPGNFIAYDILTTLYRTQEKTGLMHMSKAEVYALLGAYPKAVDELQTSYAFLDEQPLMQKRVKARILQLQEQENRLKRL”, the protein production entry is “failed”.

Consider “MFTFGFTNPEGTPDFSTPGLICIAILYIVGIYINFVFTIRRLHDRNNTGWLSLLMLVPVVNIGLAIYLFCAKGTEGPNDYGPKRPTPSWERVLGWIYIALIPLALIFGVIAVIMAPTYEGYVEKSESIVIGSPSQSE”, for which the protein production entry is listed as “failed”.
